Laboratory results from patent publication US20040033566A1.

What was measured:
[1] = target: full-length recombinant human tissue factor (human) (UniProt P13726); test: SPR, full-length TF captured by TF9-10H10, VIIa premixed with 10 µM 5L15
factor X = factor X (UniProt P00742); test: cell-based or functional assay
[2] = target: wild-type VIIa in complex with TF1-218 (human) (UniProt P08709); test: cell-based or functional assay
VIIaGln298 (human) = VIIaGln298 (human) (UniProt P08709); test: cell-based or functional assay
[3] = target: VIIaGln298 in complex with TF1-218 (human) (UniProt P08709); test: cell-based or functional assay

Chain of UniProt P00742 (P00742 41-488 limits assumed): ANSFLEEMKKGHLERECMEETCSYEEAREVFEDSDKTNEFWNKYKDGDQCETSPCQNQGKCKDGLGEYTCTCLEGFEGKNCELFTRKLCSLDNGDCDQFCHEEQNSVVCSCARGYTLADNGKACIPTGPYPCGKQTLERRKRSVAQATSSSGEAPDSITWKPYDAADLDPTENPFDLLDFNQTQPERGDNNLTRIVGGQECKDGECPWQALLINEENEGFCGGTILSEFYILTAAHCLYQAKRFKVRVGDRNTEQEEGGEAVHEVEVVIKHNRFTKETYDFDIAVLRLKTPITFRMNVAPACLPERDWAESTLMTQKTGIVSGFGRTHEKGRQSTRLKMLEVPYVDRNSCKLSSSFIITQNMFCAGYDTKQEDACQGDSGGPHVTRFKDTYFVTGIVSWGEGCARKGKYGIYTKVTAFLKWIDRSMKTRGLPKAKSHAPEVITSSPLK

For “wild-type VIIa premixed with 10 µM 5L15 (from UniProt P08709 61-212; P08709 213-466)”, the Kd [1] was 800 pM.

With “VIIaGln298 bound to phospholipid reconstituted T.F. (from UniProt P08709 61-212; P08709 213-466; P13726 33-295)” the KM (nM) of factor X activation by VIIa bound to phospholipid reconstituted T.F. (factor X) was 68 nM.

“wild-type VIIa bound to phospholipid reconstituted T.F. (from UniProt P08709 61-212; P08709 213-466; P13726 33-295)” gave a KM (nM) of factor X activation by VIIa bound to phospholipid reconstituted T.F. (factor X) of 61 nM.

“antithrombin III (from UniProt P01008 33-464)” showed a time to 50% inhibition of amidolytic activity of T.F.-VIIa complex by 0.5 µM antithrombin III with 5 U/ml heparin [2] of 6 min, a time to 50% inhibition of amidolytic activity of free VIIa by 0.5 µM antithrombin III with 5 U/ml heparin (VIIaGln298 (human)) of 31 min and a time to 50% inhibition of amidolytic activity of T.F.-VIIa complex by 0.5 µM antithrombin III with 5 U/ml heparin [3] of 4.5 min.
